The sequences below were run on Escherichia coli TOP10 (assay: shrunken log2 fold change of peptide-encoding DNA abundance (4.5 h post-induction vs induction); higher = less antimicrobial activity (less host growth inhibition)). Conditions: time post-induction: 4.5 h; library: site-saturation at positions 5, 18, 19, 20.
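Further: peptides expressed intracellularly from a pBAD plasmid library in pooled LB shake-flask culture, induced with 0.3% L-arabinose, DNA abundance read by NGS, three biological replicates, DESeq2 with apeglm shrinkage.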

Sequence | shrunken log2 fold change
RRIRTRPPRLPRPRPRPTDPPRP | -0.198
RRIRLRPPRLPRPRPRPASQPRP | -0.18
RRIRDRPPRLPRPRPRPLKGPRP | -0.0274
RRIRIRPPRLPRPRPRPGEDPRP | 0.00101
RRIRDRPPRLPRPRPRPNHNPRP | -0.539
RRIRVRPPRLPRPRPRPKHVPRP | -0.101
RRIRIRPPRLPRPRPRPTANPRP | -0.149
RRIRKRPPRLPRPRPRPRNGPRP | 0.157
RRIRSRPPRLPRPRPRPITCPRP | -0.286
RRIRFRPPRLPRPRPRPCEGPRP | -0.086
RRIRVRPPRLPRPRPRPYATPRP | -0.124
RRIRLRPPRLPRPRPRPDFDPRP | -0.047
RRIRIRPPRLPRPRPRPWPYPRP | -0.163
RRIRMRPPRLPRPRPRPQLDPRP | 0.277
RRIRRRPPRLPRPRPRPSHNPRP | -0.379
RRIRFRPPRLPRPRPRPKHQPRP | -0.131
RRIRHRPPRLPRPRPRPDVIPRP | 0.0849
RRIRRRPPRLPRPRPRPHRPPRP | 0.203
RRIRHRPPRLPRPRPRPTVVPRP | -0.00918
RRIRKRPPRLPRPRPRPIRVPRP | -0.0018
RRIRMRPPRLPRPRPRPSNPPRP | 0.155
RRIRFRPPRLPRPRPRPLWCPRP | -0.0894

Sequence | shrunken log2 fold change
RRIRRRPPRLPRPRPRPHLDPRP | 0.176
RRIRNRPPRLPRPRPRPPVSPRP | -0.401
RRIRARPPRLPRPRPRPSALPRP | 0.591
RRIRCRPPRLPRPRPRPDWRPRP | 0.243
RRIRVRPPRLPRPRPRPYELPRP | -0.401
RRIRCRPPRLPRPRPRPGDIPRP | 0.161
RRIRPRPPRLPRPRPRPCCQPRP | -0.516
RRIRERPPRLPRPRPRPMRAPRP | 0.763
RRIRRRPPRLPRPRPRPRFNPRP | -0.189
RRIRTRPPRLPRPRPRPVYDPRP | -0.156
RRIRIRPPRLPRPRPRPGYDPRP | -0.576
RRIRPRPPRLPRPRPRPAAKPRP | 0.435
RRIRCRPPRLPRPRPRPHDSPRP | -0.298
RRIRDRPPRLPRPRPRPPDNPRP | -0.272
RRIRVRPPRLPRPRPRPWKGPRP | 0.103
RRIRRRPPRLPRPRPRPVRIPRP | -0.00526
RRIRNRPPRLPRPRPRPITFPRP | -0.0674
RRIRLRPPRLPRPRPRPHNCPRP | -0.192
RRIRTRPPRLPRPRPRPMVSPRP | -0.0669
RRIRARPPRLPRPRPRPYYLPRP | -0.539
RRIRTRPPRLPRPRPRPEHKPRP | -0.0645
RRIRYRPPRLPRPRPRPKELPRP | -0.0199

Sequence | shrunken log2 fold change
RRIRMRPPRLPRPRPRPVYQPRP | -0.372
RRIRKRPPRLPRPRPRPWCHPRP | -0.15
RRIRARPPRLPRPRPRPFRCPRP | -0.0823
RRIRGRPPRLPRPRPRPDHRPRP | -0.178
RRIRFRPPRLPRPRPRPKILPRP | 0.205
RRIRQRPPRLPRPRPRPFVGPRP | -0.237
RRIRMRPPRLPRPRPRPACRPRP | 0.633
RRIRWRPPRLPRPRPRPHFHPRP | -0.596
RRIRNRPPRLPRPRPRPGKMPRP | -0.203
RRIRKRPPRLPRPRPRPAYLPRP | 0.105
RRIRKRPPRLPRPRPRPRLMPRP | 0.989
RRIRMRPPRLPRPRPRPHVLPRP | -0.00145
RRIRYRPPRLPRPRPRPWNEPRP | -0.0429
RRIRLRPPRLPRPRPRPMGNPRP | -0.147
RRIRWRPPRLPRPRPRPHNPPRP | -0.115
RRIRWRPPRLPRPRPRPDWFPRP | 0.147
RRIRHRPPRLPRPRPRPFAYPRP | -0.0167
RRIRIRPPRLPRPRPRPSADPRP | -0.235
RRIRGRPPRLPRPRPRPIDCPRP | -0.00142
RRIRYRPPRLPRPRPRPGCYPRP | -0.8
RRIRRRPPRLPRPRPRPRTAPRP | 0.458
RRIRMRPPRLPRPRPRPVNCPRP | 0.181

Sequence | shrunken log2 fold change
RRIRFRPPRLPRPRPRPGYVPRP | -0.116
RRIRTRPPRLPRPRPRPCRHPRP | -0.101
RRIRFRPPRLPRPRPRPCCCPRP | 0.0783
RRIRWRPPRLPRPRPRPMWLPRP | 0.244
RRIRQRPPRLPRPRPRPTRNPRP | 0.185
RRIRGRPPRLPRPRPRPQWIPRP | 0.518
RRIRVRPPRLPRPRPRPVYMPRP | -0.184
RRIRLRPPRLPRPRPRPEIIPRP | 0.179
RRIRIRPPRLPRPRPRPAMDPRP | -0.218
RRIRMRPPRLPRPRPRPIRRPRP | -0.168
RRIRGRPPRLPRPRPRPTNRPRP | 0.258
RRIRFRPPRLPRPRPRPLTSPRP | -0.0399
RRIRWRPPRLPRPRPRPCWVPRP | -0.116
RRIRGRPPRLPRPRPRPKASPRP | 0.234
RRIRKRPPRLPRPRPRPVQIPRP | 0.13
RRIRNRPPRLPRPRPRPYHEPRP | -0.342
RRIRERPPRLPRPRPRPCSMPRP | -0.0884
RRIRSRPPRLPRPRPRPWILPRP | -0.0844
RRIRHRPPRLPRPRPRPVQFPRP | -0.335
RRIRTRPPRLPRPRPRPHETPRP | -0.00261
RRIRNRPPRLPRPRPRPCWRPRP | -0.174
RRIRLRPPRLPRPRPRPTRHPRP | 0.156

Sequence | shrunken log2 fold change
RRIRDRPPRLPRPRPRPALCPRP | 0.225
RRIRLRPPRLPRPRPRPLEIPRP | -0.0425
RRIRTRPPRLPRPRPRPHNFPRP | -0.0359
RRIRARPPRLPRPRPRPHKWPRP | 0.192
RRIRVRPPRLPRPRPRPYTYPRP | 0.128
RRIRHRPPRLPRPRPRPVVRPRP | 0.112
RRIRDRPPRLPRPRPRPNSWPRP | -0.12
RRIRRRPPRLPRPRPRPSYVPRP | -0.0434
RRIRSRPPRLPRPRPRPSNPPRP | -0.257
RRIRHRPPRLPRPRPRPMTMPRP | -0.257
RRIRFRPPRLPRPRPRPPDLPRP | -0.329
RRIRRRPPRLPRPRPRPPYTPRP | 0.00247
RRIRMRPPRLPRPRPRPLYPPRP | -0.151
RRIRYRPPRLPRPRPRPTPFPRP | -0.27
RRIRCRPPRLPRPRPRPQIAPRP | -0.0699
RRIRIRPPRLPRPRPRPQVWPRP | -0.0966
RRIRTRPPRLPRPRPRPPNNPRP | -0.377
RRIRYRPPRLPRPRPRPPCKPRP | 0.0994
RRIRRRPPRLPRPRPRPCAEPRP | 0.393
RRIRARPPRLPRPRPRPEKVPRP | 0.131
RRIRARPPRLPRPRPRPPGEPRP | 0.381
